Results reported in patent US20130059772A1, “Use of Repeat Sequence Protein Polymers in Personal Care Compositions” (DANISCO US INC., priority 2003, published 2013).

Assays:
[1] = tested on: elastase; assay: Elastase inhibition assay (fibroblast lysate, STANA substrate); assay type: biochemical, human; conditions: positive control
Description: The RSPP test materials were also tested to determine their effect(s) on elastase activity. In these experiments, human dermal fibroblasts were used as a source of the elastase enzyme. This enzyme was partially purified from the fibroblasts by lysing the cells in an elastase buffer and retaining the soluble portion of the lysate. Portions of this fibroblast lysate were then incubated with test materials and a synthetic elastase substrate, Suc-(Ala3)-p-Nitroaniline (STANA). Elastase acts upon this substrate to release p-nitroaniline, which can be detected spectrophotometrically by measuring the absorbance at a wavelength of 405 nm. […]
The fibroblasts were washed twice with 15 ml of phosphate buffered saline with each wash removed via aspiration. […] The protein concentration of the fibroblast lysate was determined using the Pierce BCA Protein Assay kit (see below for details) and the fibroblast lysate was stored at −75° C. until used (for up to 1 year).
Upon determining the protein concentration of the lysate, a small sample was obtained and the elastase activity of the lysate was determined at 1×, 0.5× and 0.25× concentrations. The activity was determined for each of the different concentrations in exactly the same way that the uninhibited sample was treated in the elastase assay (see below). […] After 1.25 hours, the well plate was removed and read in a 96-well plate reader at 405 nm. […]

[2] = tested on: cultured dermal fibroblasts; assay: UVB protection, initial MTT assay (material applied after UVB); conditions: Homo sapiens, Fibroblast, light or radiation study, 48 h, read-out: +UVB Percent Viability
Description: (§1) In these experiments, the test material was tested at six concentrations with two duplicate sets of cells prepared. […] Changes in cell viability were then determined 48 hours post material application via an MTT assay, as described above.
(§2) Fibroblasts were seeded into the individual wells of a 96 well plate in 100 μl FGM, and incubated overnight at 37±2° C. and 5±1% CO2. On the following day, the media were removed via aspiration to eliminate any non-adherent cells and replaced with 100 μl of fresh FGM. The cells were grown until confluent, with a media change every 48 to 72 hours.
(§3) An UVLM-26 lamp was used as the source of UVB light. UV light intensity was measured using a UVX radiometer coupled to a UVB sensor probe (UV Products) to determine the time required to deliver an approximate dose of 50 mj/cm^2. Prior to UVB exposure, the FGM was replaced with 100 μl PBS. After exposure, the PBS was removed and replaced with FGM supplemented with either the test materials, 20 μM Trolox, or left unsupplemented. A duplicate set of cells was also prepared and treated as described above, with the exception that they were not exposed to UVB light. […] The cells were allowed to incubate with the test materials for 48 hours, and then changes in cell viability were determined via an MTT assay. […]
(§4) After the 48-hour incubation, the cell culture medium was removed and the fibroblasts were washed with PBS to remove any remaining test material. […] The 96-well plate was then read at 540 nm using isopropyl alcohol as a blank.
(§5) The mean MTT absorbance value for the negative control cells (non-UVB exposed and non test material treated cells) was calculated and used to represent 100% value for cell number. The individual MTT values from the cells undergoing the various treatments was then divided by the mean value for the negative control cells and expressed as a percent, to determine the change in cell viability caused by each treatment. MTT scores for each treatment are expressed as means±the standard deviation of the mean.

[3] = as above; conditions: human, cultured dermal fibroblasts
Description: as §1, §2, §3, §4, §5

[4] = tested on: Fibroblasts (HDFn Cell Line); assay: Initial pilot cell viability dose response (MTT assay); conditions: for cell viability, percent of untreated cells: 48 hours
Description: Initial screening was conducted to identify a test range suitable to determine the effect of a broad range of test material concentrations on cell viability. […] Cultured fibroblasts were exposed to the test materials for 48 hours and then changes in cell viability were determined using an MTT assay (i.e., a colorimetric analysis of the metabolic activity of the cultured cells, described in greater detail below).
The purple crystals are extracted from the cells with isopropanol and the amount of crystal formation quantified spectrophotometrically. […] A decrease in color intensity can be a sign of toxicity.
Fibroblasts (Cascade Biologics, HDFn Cell Line, lot#1C0914) were seeded into the individual wells of either a 96-well plate (for the initial pilot work to determine concentration effects on cell viability) in 100 μl of Fibroblast Growth Media (FGM) or in 12-well plates (for the measurement of collagen, elastin and MMP-1) in 1.0 ml of FGM and incubated overnight at 37±2° C. and 5±1% CO2. On the following day, the medium was removed via aspiration to eliminate any non-adherent cells and replaced with fresh FGM. The cells were grown until confluent, with a media change every 48 to 72 hours. Upon reaching confluency, the cells were treated for 24 hours with Dulbecco's Modified Essential Media (DMEM) supplemented with 1.5% FBS to wash out any effects from the growth factors included in the normal FGM. After this 24-hour wash out period, the cells were treated with the test materials at the specified concentrations dissolved in DMEM with 1.5% FBS. Untreated cells (negative controls) received DMEM with 1.5% FBS. The cells were incubated for 48 hours and at the end of the incubation period cell culture medium was either discarded (pilot work) or collected and stored frozen at −75° C. The test materials were tested in triplicate.
After the 2-day incubation, the cell culture medium was removed and the fibroblasts were washed twice with PBS to remove any remaining test material. After the final wash, either 100 μl (96-well plates) or 300 μl (12-well plates) of DMEM supplemented with 0.5 mg/ml MTT were added to each well and the cells were incubated for 1 hour at 37±2° C. and 5±1% CO2. After the incubation, the DMEM/MTT solution was removed and the cells were washed again once with PBS and then either 100 μl (96-well plates) or 1 ml (12-well plates) of isopropyl alcohol were added to each well to extract the purple formazin crystals. For the 12-well plates, two hundred microliters of the isopropyl extracts was transferred to a 96-well plate. The 96-well plates were read at 540 nm using isopropyl alcohol as a blank. The mean MTT absorbance value for the negative control cells was calculated and used to represent 100% value for cell viability. The individual MTT values from the cells undergoing the various treatments were then divided by the mean value for the negative control cells and expressed as a percent, to determine the change in cell viability caused by each treatment.

[5] = tested on: elastin; assay: Elastin assay (Fastin colorimetric assay of culture media); assay type: cell-based, human; conditions: summary in words
Description: Elastin is released by fibroblasts (soluble elastin) into the extracellular space where it is then cross-linked to other elastin proteins to form an extensive network of fibers and sheets (insoluble elastin). Soluble elastin can be readily measured from cell culture medium via a colorimetric assay.
The test materials were tested in triplicate.
In these experiments, the Biocolor Fastin Elastin Assay kits were used. A 50 μl aliquot of sample material (cell culture medium for soluble elastin) was mixed with 1.0 ml of cold Fastin Precipitating Reagent in a 1.5-ml microcentrifuge tube. […]
To release the elastin-bound dye, 1.0 ml of Fastin Destain reagent was added to each microcentrifuge tube. […] The absorbance of this solution was measured by a plate reader at 490 nm (200 μl volume read).
An elastin standard curve was generated using 12.5, 25, and 50 μg aliquots of an Elastin Standard into microcentrifuge tubes (in duplicate). These samples were treated as described above (Elastin Assay) and the absorbance values were used to generate a standard curve of known concentrations. To derive the standard curve for the elastin assay, the absorbance was plotted against the elastin concentration in μg/ml for the standards. […] Mean absorbance values for the test materials and untreated samples were then used to estimate the amount of elastin present in each sample.

CC(C)C[C@H](NP(=O)(O)O[C@@H]1O[C@@H](C)[C@H](O)[C@@H](O)[C@H]1O)C(=O)N[C@@H](Cc1c[nH]c2ccccc12)C(=O)O [Phosphoramidon, phosphoramidon, reference compound]
Percent Inhibition ([1]; 30 nM): 43%
Percent Inhibition ([1]; 100 uM): 96%

Cc1c(C)c2c(c(C)c1O)CCC(C)(C(=O)O)O2 (stereo not shown) [Trolox]
viability at 20 µM [2]: 77 ± 9%
viability at 48 h, 20 µM [3]: 120 ± 11%

GC2596-26-A: monodispersed 13-mer SELP47K RSPP (Example 1)
cell viability, percent of untreated cells ([4]; 0.0014%): 99 ± 1%
cell viability, percent of untreated cells ([4]; 0.007%): 101 ± 5%
cell viability, percent of untreated cells ([4]; 0.014%): 99 ± 10%
cell viability, percent of untreated cells ([4]; 0.07%): 96 ± 6%
cell viability, percent of untreated cells ([4]; 0.14%): 101 ± 4%
cell viability, percent of untreated cells ([4]; 0.5%): 171 ± 4%
cell viability, percent of untreated cells ([4]; 1%): 138 ± 7%
effect on the number of viable cells ([4]; initial dose response, summary in words): strongly stimulate increases in the number of viable cells
effect on elastin synthesis [5]: excellent increase
